Test results taken from patent US8703698B2, “Compositions and methods for treating atherosclerosis” (The University of Chicago, priority 2003, dated 2014).

Key:
[1] = system: cholesterol ester hydrolase; test: Rate of hydrolysis of cholesteryl ester in cholesterol-laden J774 cells (cholesterol ester hydrolase activity); type: cell-based, murine; settings: lipoproteins or protein liposomes; tissue culture
Experimental: Identification of the domain of SAA2.1 that is responsible for enhancing cholesterol ester hydrolase activity was performed in J774 cells preloaded with radio-labeled cholesteryl esters. These experiments were performed in the presence of Sandoz 58-035, an inhibitor of acyl CoA:cholesterol acyl transferase activity, to prevent re-esterification of liberated cholesterol and [^14C]oleate. Incubations proceeded for times ranging from 0 to 24 hours, following which the remaining quantities of [^14C]-labeled cholesteryl oleate in cells were measured to determine the rate of hydrolysis of cholesteryl ester. […] However, an equivalent amount of liposomes containing the synthetic peptide corresponding to amino acid residues 74-103 of murine SAA2.1 caused a 3-fold increase in cholesterol ester hydrolase activity in these cholesterol-laden murine cells. Newly confluent J774 cells were labeled with [^14C]-oleate during cholesterol loading with red blood cell membranes as described above. Cells were then incubated for up to 24 hours with 2 mL of DMEM containing 5% LPDS and 50 μg/mL of either native HDL, SAA-HDL, liposomes containing 2 μmoles of apoA-1, SAA1.1 or 2.1, or liposomes containing 0.5:mol synthetic peptides corresponding to amino acid residues 1-20 (SEQ ID NO:1), 21-50 (SEQ ID NO:2), 51-80 (SEQ ID NO:3) and 74-103 (SEQ ID NO:4) of murine SAA2.1. To determine the rate of cholesteryl ester hydrolysis, 2 μg/mL of the acyl CoA:cholesterol acyl transferase inhibitor Sandoz 58-035 (propanimide, 3-(decyldimethylsilyl)-N-[2-(4-methylphenyl)-1-phenylethyl]-(9Cl) was added during incubation with lipoproteins or liposomes to prevent […] and free cholesterol. To examine whether or not the rate of cholesteryl ester hydrolysis involved the lysosomal cholesteryl ester hydrolase, the cells were cultured in the presence of 50 μg/mL of either native HDL and chloroquine or SAA-HDL and chloroquine (100:M). Chloroquine is an agent that neutralizes the lysosomal proton gradient. At various time points, cellular lipids were extracted and analyzed for cholesteryl ester radioactivity as described above.

[2] = target: T1, acyl CoA:cholesterol acyl transferase (Mus musculus, UniProt Q61263); test: Incorporation of [14C]oleate into cholesteryl ester in cholesterol-laden macrophages (ACAT activity); type: cell-based, murine; settings: lipoproteins or protein liposomes; tissue culture
T1 construct: host or cells: J774 mouse macrophages, cholesterol-loaded
T1 sequence (Q61263 1-540): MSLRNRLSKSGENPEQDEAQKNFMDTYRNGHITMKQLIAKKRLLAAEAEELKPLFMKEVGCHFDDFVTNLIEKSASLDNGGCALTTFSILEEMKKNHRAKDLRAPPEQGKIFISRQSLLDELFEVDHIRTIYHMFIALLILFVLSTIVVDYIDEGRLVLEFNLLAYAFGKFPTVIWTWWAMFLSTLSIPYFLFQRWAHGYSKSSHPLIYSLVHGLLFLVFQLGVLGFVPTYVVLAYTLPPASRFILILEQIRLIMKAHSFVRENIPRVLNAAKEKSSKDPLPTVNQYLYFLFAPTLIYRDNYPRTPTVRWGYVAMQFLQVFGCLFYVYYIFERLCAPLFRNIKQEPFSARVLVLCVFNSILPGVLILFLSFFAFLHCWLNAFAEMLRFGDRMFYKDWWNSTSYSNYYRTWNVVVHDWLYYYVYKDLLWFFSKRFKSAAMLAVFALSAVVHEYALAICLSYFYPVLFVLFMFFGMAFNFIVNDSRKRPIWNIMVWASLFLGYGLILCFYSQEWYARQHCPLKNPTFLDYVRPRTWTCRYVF
Experimental: The incorporation of [^14C]oleate into cholesteryl ester was used as a measure of acyl CoA:cholesterol acyl transferase activity to identify compositions inhibiting the enzyme activity. The relative acyl CoA:cholesterol acyl transferase activity was determined in cholesterol-laden murine cells that had been cultured in medium in the absence of liposomes or in the presence of protein-free liposomes or liposomes containing 0.5 μM synthetic peptides corresponding to amino acids 1-20, 21-50, 51-80 and 74-103 of murine SAA2.1.
To load the cells with cholesterol, nearly confluent mono-layers were washed 3 times with phosphate buffered saline containing 2 mg/mL fatty acid-free bovine serum albumin (PBS-BSA) and incubated for 5 hours in DMEM supplemented with 5% lipoprotein-depleted serum (LPDS) (d>1.25 g/mL) and 175 μg of red blood cell membrane cholesterol. For the purpose of pool equilibration of added cholesterol, cell cultures were rinsed twice with PBS-BSA and incubated overnight in DMEM containing 5% LPDS. The relative activity of acyl CoA:cholesterol acyl transferase was determined in cholesterol-laden cells that had been cultured in medium containing no liposomes, protein-free liposomes or liposomes containing 0.5:M synthetic peptides corresponding to amino acid residues 1-20 (SEQ ID NO:1), 21-50 (SEQ ID NO:2), 51-80 (SEQ ID NO:3) or 74-103 (SEQ ID NO:4) of murine SAA2.1, respectively. Following 3 hours incubation with the above media, [^14C]-oleate was added and the cells were incubated for another 3 hour period (Mendez et al. J. Clin. Invest. 1994 94:1698-1705; Oram et al. Arterioscler. Thromb. 1991 11:403-414). Cells were chilled on ice and washed twice with PBS-BSA and twice with PBS. After addition of [^3H]-cholesteryl oleate (6000 dpm/well) as an internal standard, the lipids were extracted from the labeled cells and analyzed by thin-layer chromatography as described by Mendez et al. (J. Clin. Invest. 1994 94:1698-1705) and Oram et al. (Arterioscler. Thromb. 1991 11:403-414). The radioactivity in appropriate spots was measured to determine the incorporation of radioactivity into cholesteryl esters as a measure of acyl CoA:cholesterol acyl transferase activity.

[3] = system: J774 macrophages; test: Cholesterol efflux from cholesterol-laden J774 macrophages to apolipoprotein liposomes with 8-bromo-cAMP or methyl-β-cyclodextrin; type: cell-based, mouse
Description: The export process of cholesterol is coupled to the ATP binding cassette transporter (ABCA1) pathway. Lipid efflux to apolipoproteins has been shown previously to be stimulated by treatment of murine macrophages with cAMP analogues (Lin et al. 2002 Biochem Biophys Res. Commun. 290:663-669; Oram et al. 2000 J. Biol. Chem. 275:34508-34511). Also, the expression of ABCA1 is induced by cAMP treatment (Lin et al. 2002 Biochem Biophys Res. Commun. 290:663-669; Oram et al. 2000 J. Biol. Chem. 275:34508-34511). The inventors herein examined the effect of 8-bromo-cAMP (0.3 mM) on cholesterol efflux by liposomes containing various apolipoproteins when incubated with cholesterol-laden J774 macrophages. Such cells were pre-labeled with [^3H]-cholesterol in the presence of Sandoz 58-035, an ACAT inhibitor, to ensure that all of the radiolabeled cholesterol released from the cells was derived from the un-esterified cholesterol pool, and the cells were treated for 12 hours with 8-bromo-cAMP. This was followed by incubation with various acceptors. The fractional release of cellular labeled cholesterol was determined as a function of time.
To investigate whether an apolipoprotein free cholesterol acceptor such as cyclodextrin has the ability to catalyze the removal of cholesterol from macrophages, cholesterol-loaded and labeled J774 cells were incubated with liposomes and methyl-β-cyclodextrin (0.1 mM) (CD).
To examine whether cholesterol export from J774 cells to medium containing liposomes containing 2 μM murine apoA-1, SAA1.1 or SAA2.1 is a cAMP-dependent process, the radio-labeled cholesterol-laden cells were incubated overnight with 8-Br-cAMP (0.3 mM), prior to the addition of liposomes containing 2 μM murine apoA-1, SAA1.1 or SAA2.1 to the culture medium. Cholesterol efflux to the medium was then determined at the indicated time points as described above. Efflux of radioactive label to the medium was calculated as a percentage of total counts in each well.

[4] = target: T1, acyl CoA:cholesterol acyl transferase; test: ACAT activity in macrophage post-nuclear homogenates; type: biochemical, murine; settings: macrophage post-nuclear homogenates as enzyme source
Description: The in vitro effects of acute phase-HDL (AP-HDL;HDL-SAA) on acyl CoA:cholesterol acyl transferase and cholesterol ester hydrolase activities and on cellular cholesterol export were studied by the inventors using purified enzymes, cell homogenates, and whole cells. […] In contrast, murine SAA1.1 and apoA-1 had no effect. […] Using macrophages preloaded with radio-labeled cholesterol and injected intravenously into either inflamed or un-inflamed mice, it was shown that the inflamed mice, which have high SAA2.1 levels, effluxed cholesterol more rapidly and to a greater extent (6-fold greater) than their un-inflamed counterparts.

[5] = system: J774 macrophages; settings: Tam et al. 2002; cited from earlier work

B1: GFFSFIGEAFQGAGDMWRAYTDMKEAGWKDGDKYFHARGNYDAAQRGPGGVWAAEKISD ARESFQEFFGRGHEDTMADQEANRHGRSGKDPNYYRPPGLPAKY (protein, listed as Mus musculis)
chain: GFFSFIGEAFQGAGDMWRAYTDMKEAGWKDGDKYFHARGNYDAAQRGPGGVWAAEKISDARESFQEFFGRGHEDTMADQEANRHGRSGKDPNYYRPPGLPAKY
notes: full length murine serum amyloid A isoform 1.1
With B1 the “cholesterol ester hydrolase activity in intact cholesterol-laden macrophages” value [1] was “no effect on enzyme activities”, the “acyl CoA:cholesterol acyl transferase activity in intact cholesterol-laden macrophages” value [2] was “no effect on enzyme activities” and the “stimulation of cholesterol efflux to liposomes with or without cAMP pre-treatment” value ([3]; 8-bromo-cAMP 0.3 mM) was “No stimulation of efflux”. The “increase in the initial rate of cholesterol efflux with CD treatment” value ([3]; methyl-β-cyclodextrin 0.1 mM plus liposomes) was “not”, the “acyl CoA:cholesterol acyl transferase activity” value [4] was “had no effect” and the “promotion of cholesterol efflux from cholesterol-laden macrophages compared to protein-free liposomes” value [5] was “not any more effective than protein-free liposomes”.
